Results taken from the supplement of paper PMC11780869.

System: Bacillus subtilis
Assay: cleaved RNA product abundance (RNA/gDNA barcode ratio) relative to median wild-type variant (ratio to wild type); higher = more accumulation of the downstream cleavage product
How it was run: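 Reporter mRNAs based on truncated aprE or tetM carried barcoded, mutagenized RNase Y cleavage-site windows built from oligos with a 9% error rate and were integrated into the B. subtilis chromosome. Cultures grew in LB at 37°C from OD600 0.0003 to 0.3. Cleaved RNA was gel-selected, reverse transcribed and barcode-sequenced together with genomic DNA barcodes, and UMIs were collapsed. Cleaved product abundance is the per-construct ratio of RNA to gDNA barcodes, scaled to the median of constructs carrying the unmutated site.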

[1] = experiment (reporter, strain, medium): exp 4a: truncated aprE reporter, strain BJT201 with 2% xylose (RNase J1 expressed), cleavage site: cggR-gapA (positions -7 to +36 mutated)
[2] = experiment (reporter, strain, medium): exp 8a: truncated aprE reporter, strain BJT201 with 2% xylose (RNase J1 expressed), cleavage site: glnRA (positions -5 to +31 mutated)
[3] = experiment (reporter, strain, medium): exp 2b: truncated aprE reporter, strain BJT200, cleavage site: cggR-gapA (positions -7 to +36 mutated)

Sequence | cleaved RNA product abundance [1] | cleaved RNA product abundance [2] | cleaved RNA product abundance [3] | further results
ACAGACGAAGGAGCCGCAAAGAAGTTAATAAGGGATGAAGAATCCCTCAATATAAATATCTCTCACTTATTTAAA | 0.278 | – | – | –
ACAGACGAAGGAGCCGCAAAGAAGTTATTAAGAGATGAATAATCCCTGAATATAAATATCTCTCACTTATTTAAA | 0.0805 | – | – | –
CGACATGTCCCGCTTCTTTCATTACTCCGTTAGCAACTGTTTTGCTATATACATATACCTTTTAAGAGGAGGAAT | – | 0.767 | – | –
ACAGACGAAGGAGCCGCAAAGAATTTATTAAGGGAGGAATAATCCCTCAATATAAATATCTCTCACTTATTTAAA | 0.459 | – | – | –
CGACATGTCCCGCTTCTTTCATTAATCCGTTAGCAACTGTTTTGCTATATACAATTAACTTTTAAGAGGAGGAAT | – | 2.58 | – | –
CGACATGTCCCGCTTCTTTCATTAATCCGTTAGCAACTTATTTGCTATATACATTTACCTTTTAAGAGGAGGAAT | – | 1.85 | – | –
CGACATGTCCCGCTTCTTTCATTAATCCGATAGCAACTGTTTTGCTAGATACATTTACCTTTTAAGAGGAGGAAT | – | 0.354 | – | –
ACAGACGAAGGAGCCGCAAAGAAGTTTTTAAGTGATGAATAATCCCTCAATATAAATATCTCTCACTTATTTAAA | 0.0945 | – | 0.117 | –
CGACATGTCCCGCTTCTTTCATTAATCCGATAGCAACTGTTTTGCTATTTACATTTACCTTTTAAGAGGAGGAAT | – | 0.189 | – | –
ACAGACGAAGGAGCCGCAAAGAAGTTATTAAGGGCTGAATATTCCCTCAATATAAATATCTCTCACTTATTTAAA | 0.16 | – | 0.228 | –
CGACATGTCCCGCTTCTTTCATTAATCCGTTAGCAAATTTTTTGCTATATACATTTACCTTTTAAGAGGAGGAAT | – | 1.19 | – | –
ACAGACGAAGGAGCCGCAAAGAAGTTTTTAAGGAATGAATAATCCCTCAATATAAATATCTCTCACTTATTTAAA | 0.163 | – | 0.0825 | –
ACAGACGAAGGAGCCGCAAAGAAGATAGTAAGGGATGAATAATCCCTCAATATAAATATCTCTCACTTATTTAAA | 0.265 | – | – | –
ACAGACGAAGGAGCCGCAAAGAAGTTATTAAGGGTTGAATAATCCCTCAATTTAAATATCTCTCACTTATTTAAA | 0.132 | – | – | –
ACAGACGAAGGAGCCGCAAAGAAGTTATTAAGCTATGAATAATCCCTCAATATAAATATCTCTCACTTATTTAAA | 0.104 | – | 0.0874 | –
ACAGACGAAGGAGCCGCAAAGAAGTTATTAATGGATGAATAATCCCTCAATATAAATATCTCTCACTTATTTAAA | 0.155 | – | 0.122 | cleaved RNA product abundance (experiment (reporter, strain, medium): exp 6: tetM reporter, strain 168, cleavage site: cggR-gapA (positions -7 to +36 mutated)): 0.174
ACAGACGAAGGAGCCGCAAAGAAGATATTAAGGGATGAATAATCCCTCAACATAAATATCTCTCACTTATTTAAA | 0.157 | – | 0.131 | –
ACAGACGAAGGAGCCGCAAAGAAGTTACTAAGTGATGAATAATCCCTCAATATAAATATCTCTCACTTATTTAAA | 0.102 | – | 0.0989 | –
ACAGACGAAGGAGCCGCAAAGAAGTTATTAAGGGATTGATAATCCCTCAATATAAATATCTCTCACTTATTTAAA | 0.889 | – | – | –
ACAGACGAAGGAGCCGCAAAGAAGTTATTAAGCGATGAATAATCCCTCTATATAAATATCTCTCACTTATTTAAA | 0.0811 | – | – | –

Sequence | cleaved RNA product abundance [1] | cleaved RNA product abundance [2] | cleaved RNA product abundance [3] | further results
ACAGACGAAGGAGCCGCAAAGAAATTATTAATGAATGAATAATCCCTCAATATAAATATCTCTCACTTATTTAAA | 0.152 | – | – | –
ACAGACGAAGGAGCCGCAAAGAAGCTATTAAGGGATGAACAATCCCTCAATATAAATATCTCTCACTTATTTAAA | 0.568 | – | – | –
ACAGACGAAGGAGCCGCAAAGAAGTTATTGAGGGATGAATACTCCCTCAATATAAATATCTCTCACTTATTTAAA | 0.0909 | – | – | –
ACAGACGAAGGAGCCGCAAAGAATTTATTAAAGGATGAAAAATCCCTCAATATAAATATCTCTCACTTATTTAAA | 0.197 | – | – | –
ACAGACGAAGGAGCCGCAAAAAAGTTATTAAGGGATTAATAATCCCTCAATATAAATATCTCTCACTTATTTAAA | 0.881 | – | 1.51 | –
CGACATGTCCCGCTTCTTTCATTAATCCGTTAGCAACTGTTTTGCTATATAAATATACCTTTTAAGAGGAGGAAT | – | 1.3 | – | –
CGACATGTCCCGCTTCTTTCATTAATCCGTTACCAACTGTTTTGCTACATACATTTACCTTTTAAGAGGAGGAAT | – | 0.326 | – | –
ACAGACGAAGGAGCCGCAAAGAAGTTATTAAGGGATGAATAATCCCTCAAAATACATATCTCTCACTTATTTAAA | 0.3 | – | 0.202 | –
ACAGACGAAGGAGCCGCAAAGAAATTATTAAGGGATGAATAATCCCTCAATATATATATCTCTCACTTATTTAAA | 0.766 | – | – | –
CGACATGTCCCGCTTCTTTCATTAATCCGTTTGCAATTGTTTTGCTATATACATTTACCTTTTAAGAGGAGGAAT | – | 0.536 | – | –
ACAGACGAAGGAGCCGCAAAGAAGTTATTAAGGGATGCATCATCCCTCAATATAAATATCTCTCACTTATTTAAA | 0.307 | – | – | –
ACAGACGAAGGAGCCGCAAAGAAGTTATTAAGGGATGAATAATCACTCACTATAAATATCTCTCACTTATTTAAA | 0.0806 | – | 0.0967 | –
ACAGACGAAGGAGCCGCAAAGAAGTTATTAAAGGATGAATAATCCCTAAATATAAATATCTCTCACTTATTTAAA | 0.342 | – | 0.232 | –
ACAGACGAAGGAGCCGCAAAGAACTTATTAAGGGATTAATAATCCCTCAATATAAATATCTCTCACTTATTTAAA | 0.621 | – | – | –
ACAGACGAAGGAGCCGCAAAAAAGTTATTAAGGGATGAATCATCCCTCAATATAAATATCTCTCACTTATTTAAA | 1.01 | – | – | –
ACAGACGAAGGAGCCGCAAAGAAGTTATTAAAGAATGAATAATCCCTCAATATAAATATCTCTCACTTATTTAAA | 0.114 | – | 0.0737 | –
CGACATGTCCCGCTTCTTTCATTACTCCGTTAGCAACTGTTTTGCGATATACATTTACCTTTTAAGAGGAGGAAT | – | 0.388 | – | –
CGACATGTCCCGCTTCTTTCATTAATCCGTCAACAACTGTTTTGCTATATACATTTACCTTTTAAGAGGAGGAAT | – | 0.384 | – | –
CGACATGTCCCGCTTCTTTCATTAATCCGTTAGCAACTGTTTTGCTATCTACAGTTACCTTTTAAGAGGAGGAAT | – | 0.0519 | – | –
CGACATGTCCCGCTTCTTTCATTAATCCGTTAGCAACTGTTTAGCTATATACATTTAGCTTTTAAGAGGAGGAAT | – | 0.608 | – | –

Sequence | cleaved RNA product abundance [1] | cleaved RNA product abundance [2] | cleaved RNA product abundance [3] | further results
ACAGACGAAGGAGCCGCAAAGAAGTTATTAAGGAATCAATAATCCCTCAATATAAATATCTCTCACTTATTTAAA | 0.109 | – | 0.0834 | –
CGACATGTCCCGCTTCTTTCATTAATCCGTTAGCATCTGTTTTGCTATATACATTTACGTTTTAAGAGGAGGAAT | – | 0.589 | – | –
CGACATGTCCCGCTTCTTTCATTAATCCTTTAGCAACTGTTTTTCTATATACATTTACCTTTTAAGAGGAGGAAT | – | 0.478 | – | –
ACAGACGAAGGAGCCGCAAAGAAGTTATTAAGGGATGAATAATCCCACATTATAAATATCTCTCACTTATTTAAA | 0.152 | – | – | –
CGACATGTCCCGCTTCTTTCATTATTCCGTTTTCAACTGTTTTGCTATATACATTTACCTTTTAAGAGGAGGAAT | – | 0.361 | – | –
ACAGACGAAGGAGCCGCAAAGAAGTTATTAATGGATGAATAATACCTCAATATAAATATCTCTCACTTATTTAAA | 0.126 | – | 0.0824 | –
CGACATGTCCCGCTTCTTTCATTAATCCGTTAGCAACTGTTTTGCTATATACATTCACCTTTTAAGAGGAGGAAT | – | 0.581 | – | –
ACAGACGAAGGAGCCGCAAAGAAGTTATTAAGGGATGAACAATCCCTCATTATAAATATCTCTCACTTATTTAAA | 0.321 | – | 0.22 | –
ACAGACGAAGGAGCCGCAAAGAAGTTATTAAGAGATAAAAAATCCCTCAATATAAATATCTCTCACTTATTTAAA | 0.139 | – | – | –
ACAGACGAAGGAGCCGCAAAGAAGTTATTAACGTATGAATAATCCCTCAATATAAATATCTCTCACTTATTTAAA | 0.0853 | – | 0.098 | –
ACAGACGAAGGAGCCGCAAAGAAGTTATTAAGAGATGAATAGTCCCTCAATATAAATATCTCTCACTTATTTAAA | 0.136 | – | 0.0992 | –
ACAGACGAAGGAGCCGCAATGAAGTCATTAAGGGATGAATAATCCCTCAATATAAATATCTCTCACTTATTTAAA | – | – | 0.189 | –
CGACATGTCCCGCTTCTTTCATTAATCCATTAGCAACTGTTTTGCTATATACATTTACATTTTAAGAGGAGGAAT | – | 0.688 | – | –
ACAGACGAAGGAGCCGCAAAGAAGTAATTAAGGGATGAATAATCCCTCAATATATATATCTCTCACTTATTTAAA | 0.278 | – | 0.2 | –
CGACATGTCCCGCTTCTTTCATTAATCCGTTAGCAACTGTTTTGCAATATACATTTATCTTTTAAGAGGAGGAAT | – | 0.505 | – | –
ACAGACGAAGGAGCCGCAAAGAATTTATTAAGAGATGAATAATCCCTCAATATAAATATCTCTCACTTATTTAAA | 0.142 | – | 0.112 | –
ACAGACGAAGGAGCCGCAAAAAAGTTATTAAGGGATGAATAATCCATCAATATAAATATCTCTCACTTATTTAAA | 0.307 | – | 0.17 | –
CGACATGTCCCGCTTCTTTCATTAATCCGTTAGCAAGTGTTTTGCTATATAAATTTACCTTTTAAGAGGAGGAAT | – | 0.803 | – | –
ACAGACGAAGGAGCCGCGAAGAACTTATTAAGGGATGAATAATCCCTCAATATAAATATCTCTCACTTATTTAAA | 0.252 | – | – | –
